Paper PMC11456856

Target: human FcRider (afucosylated two-unit tandem hIgG1 Fc joined by the trimerization sequence Foldon)
Assay: native gel or EMSA; blue native PAGE, 1.5 h at 150 V in NativePAGE running buffer; hFcRider purified by Protein A column; monomer ~65 kDa in reducing SDS-PAGE

Substance: human FcRider (afucosylated two-unit tandem hIgG1 Fc joined by the trimerization sequence Foldon)
- stoichiometry N: 6
